Results: article PMC6711944

Biological target: NS1B-NTR (1-103), N-terminal region of the influenza B virus NS1 protein (influenza B virus) (UniProt P03502)
Experiment: ITC; about 0.5 mM ISG15 injected into 250 ul of 0.05 mM NS1B-NTR in the cell, 20 aliquots of 2 ul; 25 °C; 10 mM HEPES-sodium, 500 mM NaCl, pH 7.2; MicroCal iTC200; 'one set of sites' fitting model

In the case of cISG15-K82A-N83A (natural protein), the Kd is reported as 12 µM.
